In US20210155689A1 (SHANGHAI PHARMAEXPLORER, published 2021):

Experiments:
[1] = molecular target: monkey LAG-3 on cells (HEK293-cLAG-3 stable cell line) (monkey); experiment: FACS, HEK293-cLAG-3, antibody 0.013 nM
[2] = molecular target: LAG-3-hFc protein (human LAG-3 extracellular region with hFc tag) (human) (UniProt P18627); experiment: ELISA, inhibition of LSECtin-His binding to coated LAG-3-hFc, antibody 200.000 nM, replicate 1
[3] = molecular target: human LAG-3 on cells (HEK293-hLAG-3 stable cell line) (human) (UniProt P18627); experiment: FACS, HEK293-hLAG-3, antibody 1.6 nM
[4] = molecular target: human LAG-3 on cells (HEK293-hLAG-3 stable cell line) (human) (UniProt P18627); experiment: FACS, HEK293-hLAG-3, antibody 8 nM
[5] = molecular target: LAG-3-hFc protein (human LAG-3 extracellular region with hFc tag) (human) (UniProt P18627); experiment: ELISA, inhibition of LSECtin-His binding to coated LAG-3-hFc, antibody 40.000 nM, replicate 1
[6] = molecular target: human LAG-3 on cells (HEK293-hLAG-3 stable cell line) (human) (UniProt P18627); experiment: FACS, HEK293-hLAG-3, antibody 8.000 nM
[7] = molecular target: LAG-3-hFc protein (human LAG-3 extracellular region with hFc tag) (human) (UniProt P18627); experiment: FACS, inhibition of LAG-3-hFc binding to MHC II on Raji cells, antibody 0.823 nM
[8] = molecular target: human LAG-3 on cells (HEK293-hLAG-3 stable cell line) (human) (UniProt P18627); experiment: FACS, HEK293-hLAG-3, antibody 0.013 nM
[9] = molecular target: LAG-3-hFc protein (human LAG-3 extracellular region with hFc tag) (human) (UniProt P18627); experiment: FACS, inhibition of LAG-3-hFc binding to MHC II on Raji cells, antibody 66.667 nM
[10] = molecular target: monkey LAG-3 on cells (HEK293-cLAG-3 stable cell line) (monkey); experiment: FACS, HEK293-cLAG-3, antibody 40.000 nM
[11] = molecular target: LAG-3-hFc protein (human LAG-3 extracellular region with hFc tag) (human) (UniProt P18627); experiment: ELISA, inhibition of LSECtin-His binding to coated LAG-3-hFc, antibody 0.013 nM, replicate 1
[12] = molecular target: human LAG-3 on cells (HEK293-hLAG-3 stable cell line) (human) (UniProt P18627); experiment: FACS, HEK293-hLAG-3, antibody 0.013 nM; remark: listed apart in the source
[13] = molecular target: T1, human LAG-3 ECD (antigen protein of the affinity test) (human, UniProt P18627 23-450); experiment: SPR, CM5 chip, antibody captured by anti-human Fc IgG, antigen in flow, 1:1 fit
T1 sequence: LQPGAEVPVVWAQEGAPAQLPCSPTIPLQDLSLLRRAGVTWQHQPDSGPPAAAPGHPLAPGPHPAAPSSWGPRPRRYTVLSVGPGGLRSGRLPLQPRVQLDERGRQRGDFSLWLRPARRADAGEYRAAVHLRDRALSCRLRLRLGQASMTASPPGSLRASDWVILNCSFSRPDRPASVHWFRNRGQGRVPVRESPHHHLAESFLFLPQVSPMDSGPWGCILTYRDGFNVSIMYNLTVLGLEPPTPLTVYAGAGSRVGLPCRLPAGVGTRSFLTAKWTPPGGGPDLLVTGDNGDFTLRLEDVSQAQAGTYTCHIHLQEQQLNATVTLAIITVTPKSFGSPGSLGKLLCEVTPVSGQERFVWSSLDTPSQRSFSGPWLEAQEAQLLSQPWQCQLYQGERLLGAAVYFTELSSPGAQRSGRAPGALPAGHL
Summary of the method: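 Antibody captured via anti-human Fc IgG on a CM5 chip (~100–300 RU); human LAG-3 ECD flowed at 30 ul/min, top concentration 100 nM plus dilution series, in HBS-EP+. Glycine pH 1.5 regeneration, blank-subtracted, global 1:1 fit; KD = kd/ka.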

[14] = molecular target: T2, human LAG-3 on cells (HEK293-hLAG-3 stable cell line) (human, UniProt P18627 23-525); experiment: FACS, HEK293-hLAG-3, antibody 0.064 nM
T2 sequence: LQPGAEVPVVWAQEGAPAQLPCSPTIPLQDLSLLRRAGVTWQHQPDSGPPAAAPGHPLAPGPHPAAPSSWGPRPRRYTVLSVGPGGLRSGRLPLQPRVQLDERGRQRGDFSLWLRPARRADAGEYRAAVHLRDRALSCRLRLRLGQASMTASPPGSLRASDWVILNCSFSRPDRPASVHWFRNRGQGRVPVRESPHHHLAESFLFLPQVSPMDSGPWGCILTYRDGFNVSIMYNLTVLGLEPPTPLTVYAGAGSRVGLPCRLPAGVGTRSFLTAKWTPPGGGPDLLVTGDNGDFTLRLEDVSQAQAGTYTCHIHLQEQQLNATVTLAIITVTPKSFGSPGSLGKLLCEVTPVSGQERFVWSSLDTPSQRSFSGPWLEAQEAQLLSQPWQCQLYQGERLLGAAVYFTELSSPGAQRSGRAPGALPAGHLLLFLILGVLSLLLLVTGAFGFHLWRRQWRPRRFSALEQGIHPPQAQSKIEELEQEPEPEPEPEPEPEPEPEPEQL
Excerpt: A. The binding of antibodies to LAG-3 expressing cells was detected by Flow cytometry (FACS), wherein the method was according to that of Example 5.

[15] = molecular target: T2, human LAG-3 on cells (HEK293-hLAG-3 …); experiment: FACS, HEK293-hLAG-3, antibody 0.013 nM

Sequence of monkey LAG-3 on cells (HEK293-cLAG-3 stable cell line) (monkey) (P18627 other isoform, or with tags, fused parts or gaps limits assumed): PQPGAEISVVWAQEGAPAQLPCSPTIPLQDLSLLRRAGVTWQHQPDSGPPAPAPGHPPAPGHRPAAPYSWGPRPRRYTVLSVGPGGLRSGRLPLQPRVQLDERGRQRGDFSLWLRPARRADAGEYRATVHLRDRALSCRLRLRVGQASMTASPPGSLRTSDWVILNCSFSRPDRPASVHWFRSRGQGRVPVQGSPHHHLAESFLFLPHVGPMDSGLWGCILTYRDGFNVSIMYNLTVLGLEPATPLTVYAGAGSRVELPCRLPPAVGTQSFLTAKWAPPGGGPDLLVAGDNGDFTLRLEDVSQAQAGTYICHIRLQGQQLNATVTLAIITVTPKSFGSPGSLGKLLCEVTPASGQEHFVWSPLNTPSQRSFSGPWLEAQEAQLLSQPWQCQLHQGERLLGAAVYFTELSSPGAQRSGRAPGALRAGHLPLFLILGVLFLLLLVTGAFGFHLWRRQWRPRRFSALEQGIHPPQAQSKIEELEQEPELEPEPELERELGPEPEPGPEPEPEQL

**Q.** What does the source list for hIgG control (antibody)?
**A.** Mean fluorescence intensity [1]: 2.87; Inhibition rate (%) [2]: 2.6%; Mean fluorescence intensity [3]: 4; Mean fluorescence intensity [4]: 4; Inhibition rate (%) [5]: 0.7%; Mean fluorescence intensity [6]: 3; Inhibition rate (%) [7]: 10.2%; Mean fluorescence intensity [8]: 3; Inhibition rate (%) [9]: 12.1%; Mean fluorescence intensity [10]: 2.88; Inhibition rate (%) [11]: -12.9%; Mean fluorescence intensity [12]: 4

B1: 405B8H3 mouse-human chimeric antibody (antibody, V domains shown)
VH: QVQLQQSGAELVRPGASVTLSCKASGYTFTDYEMHWVKQTPVHGLEWIGATDPETGNSAYNQKFKGKAIMTADKSSSTAYMELRSLTSEDSAVYYCISTGWNDWGQGTSLTVSS
VL: DIKMTQSPSSMYASLGERVTITCKASQDINSYLSWFQQKPGKSPKTLIYRADRLLDGVPSRFSGSGSGQDYSLTISSLEYGDMGIYYCLQYDEFPYTFGGGTKLEIK
notes: also called mAb103-405B8H3
**Q.** Which results are given for B1?
**A.** Kd [13]: 2.58 nM; koff [13]: 0.000165 s⁻¹; kon [13]: 64000 M⁻¹ s⁻¹; Mean fluorescence intensity [14]: 19

B2: 556F6B8 mouse-human chimeric antibody (antibody, V domains shown)
VH: RVQLKQSGPGLVQPSQSLSITCTVSGFSLIKYGVHWVRQSPGEGLEWLGVIWRGGITDYNAAFMSRLSITKDNSKSQVFFKMNSLQADDTAIYYCAKWDGPLAMDYWGQGTSVTVSS
VL: DIVMTQSHKFLSTSVGDRVSITCKASQDVGTTVAWYQQKPGQSPKLLIYWASTRHTGVPDRFTGSGSGTDFTLTISNVQSEDLADYFCQQYSSYPYTFGGGTKLEIK
notes: also called mAb123-556F6B8; 556F8B8
**Q.** How did the Kd [13] turn out when B2 was run?
**A.** 3.39 nM

**Q.** And the koff [13]?
**A.** 0.000455 s⁻¹

**Q.** What about the kon [13] of the same molecule?
**A.** 134000 M⁻¹ s⁻¹

**Q.** And the Mean fluorescence intensity [15]?
**A.** 6
